Experimental findings from US20220235344A1, “TRYPSIN VARIANTS WITH IMPROVED ENZYMATIC PROPERTIES” (BIOPHARMA TRANSLATIONSINSTITUT DESSAU FORSCHUNGS GMBH, priority 2018, published 2022) are described below.

Several values for one entry are separate records, joined by “and”; a condition that tells them apart may be missing. Equal entries are not always repeated.

In data set [1] the test system is R1-YRKH-R2 (Bz-PGGYRKHAG-OH) / H-RKHAK(DNP)-OH. The data set can be described thus: Zinc dependence of the transamidation reaction, A2C8 and K7F11, YRKH. It is filed as biochemical. Particulars: 100 μM acyl donor, 200 μM acyl acceptor. As to the method:
(§1) Model transamidation reactions were performed in a solution containing 15 to 250 μM acyl donor, 2 eq. of the corresponding acyl acceptor, varying concentrations of trypsin variant, 100 mM HEPES/NaOH pH 7.8, ±0.1 mM ZnC12, 100 mM NaCl, 10 mM CaCl2) at 30° C. Acyl donor and acyl acceptor had the same amino acids in P1′-P3′ position, e.g. Bz-[…]+H-RAHAK-OH or Bz-[…]+H-RKKAK-OH. Variations are indicated. The acyl acceptor could be equipped with a 2,4-Dinitrophenyl group (DNP) at the side chain of the terminal lysine, e.g. H-RAHAK(DNP)-OH or H-RKKAK(DNP)-OH. The reactions were started by the addition of enzyme. To record the time course of product formation and/or for kinetic evaluation of the reaction several aliquots of the reaction mixture were quenched with 25% (v/v) acetic acid at distinct time points within up to 4 hours. The composition of the reaction mixture was analyzed by UPCL with method I or II, depending on the absence (method 1) or presence (method II) of a 2,4-dinitrophenyl group within the acyl acceptor (see example 1). Measurements were performed as duplicates and errors were less than 5%.

Data set [2] deals with R1-YRAH-R2 (Bz-PGGYRAHAG-OH) / H-RAHAK(DNP)-OH. The data set is described as follows: Zinc dependence of the transamidation reaction, A2C8 and K7F11, YRAH. It is filed as biochemical. As to the method:
as §1

Data set [3] concerns the target T1, Bz-PGGYRAHAG-OH (acyl donor) (Rattus norvegicus, UniProt P00763, A221T/D194K/E154Y/G219Q/H46F/K102D/K66E/L104F/N146E/Q197A/R101E/S195V/S215G/Y45H/Y65H).
T1 construct: made in house; host or cells: Pichia pastoris X-33
T1 sequence (P00763 24-246 Y45H/H46F/Y65H/K66E/R101E/K102D/L104F/N146E/E154Y/D194K/S195V/Q197A/S215G/G219Q/A221T): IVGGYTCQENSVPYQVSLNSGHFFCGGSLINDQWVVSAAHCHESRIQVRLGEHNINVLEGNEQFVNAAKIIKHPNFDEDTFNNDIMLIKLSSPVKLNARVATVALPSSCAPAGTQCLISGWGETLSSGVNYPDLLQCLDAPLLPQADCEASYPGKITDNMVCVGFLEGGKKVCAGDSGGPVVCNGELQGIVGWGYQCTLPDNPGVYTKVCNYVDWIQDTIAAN
The data set is described as follows: Turnover rate of the hydrolysis reaction in the absence of a nucleophilic peptide. It is filed as biochemical. Particulars: Zinc ions: no; varying Bz-PGGYRAHAG-OH, 2 μM trypsin variant, no nucleophilic peptide. As for the experimental part:
(§2) Hydrolysis reactions were performed in a solution containing varying concentrations of the acyl donor Bz-[…]-OH (0-5000 μM for Trypsiligase II, 0-1500 μM for variant A2C8), 2 μM trypsin variant, 100 mM HEPES/NaOH pH 7.8, 100 mM NaCl, 10 mM CaCl2 at 30° C. In case of Trypsiligase II the reactions were performed in the presence of 100 μM ZnCl2. The reaction was started by the addition of enzyme. For kinetic evaluation of the reaction several aliquots of the reaction mixture were quenched with 25% (v/v) acetic acid at distinct time points within 30 minutes. The composition of the reaction mixture was analyzed by UPCL using method I (see example 1). UV absorption of the N-terminal benzoyl-group (Bz-), which is present in the acyl donor as well as in the hydrolysis product, was detected at 254 nm. To determine the turnover rate of the hydrolysis reaction (kcat,HL) the initial rates for the hydrolysis reaction were plotted against the corresponding acyl donor concentration and fitted to the Michaelis Menten equation. Measurements were performed as duplicates and errors were less than 5%.

Data set [4] relates to Bz-PGGYRAHAG-OH (acyl donor). Described as above. It is filed as biochemical. As for the experimental part: as §2
In data set [5] the target is T2, Bz-PGGYRAHAG-OH (acyl donor) (Rattus norvegicus, UniProt P00763, D194K/K66E/Y45H/Y65H).
T2 construct: made in house; host or cells: Pichia pastoris X-33
T2 sequence (P00763 24-246 Y45H/Y65H/K66E/D194K): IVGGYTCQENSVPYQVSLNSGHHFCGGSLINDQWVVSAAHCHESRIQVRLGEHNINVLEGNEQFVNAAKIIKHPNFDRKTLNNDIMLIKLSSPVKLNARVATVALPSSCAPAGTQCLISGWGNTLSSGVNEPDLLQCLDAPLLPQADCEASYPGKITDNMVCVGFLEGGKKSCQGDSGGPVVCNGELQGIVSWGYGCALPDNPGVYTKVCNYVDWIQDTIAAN
Described as above. It is filed as biochemical. To be noted: Zinc ions (100 μM): yes; varying Bz-PGGYRAHAG-OH, 2 μM trypsin variant, no nucleophilic peptide. As to the method: as §2

For another data set, the target named is T3, H-RAHAK(DNP)-OH.
T3 chain: RAHAK

Data set [6] concerns the target T4, Bz-PGGYRAHAG-OH (acyl donor) / H-RAHAK-OH (acyl acceptor) (Rattus norvegicus, UniProt P00763, D194K/K66E/Y45H/Y65H).
T4 construct: monomeric enzyme species (about 24 kDa); made in house; host or cells: Pichia pastoris X-33 (pPICZalphaA, secreted)
T4 sequence (P00763 24-246 Y45H/Y65H/K66E/D194K): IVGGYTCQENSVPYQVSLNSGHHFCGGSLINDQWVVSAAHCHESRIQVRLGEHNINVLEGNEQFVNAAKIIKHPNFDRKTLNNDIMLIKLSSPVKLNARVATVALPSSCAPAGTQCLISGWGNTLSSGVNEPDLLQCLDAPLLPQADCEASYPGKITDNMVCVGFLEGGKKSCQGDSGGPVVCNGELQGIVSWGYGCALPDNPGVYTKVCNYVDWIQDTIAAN
The data set can be described thus: Model transamidation at high and low substrate concentrations, Trypsiligase II. Type of data set: biochemical. Particulars: for product yield (%) / kcat, AL^app (mkat/mol) / kcat, AL^app/kcat, HL^app / kcat, HL^app (mkat/mol): 0.1 mM ZnCl2. As for the experimental part: as §1
The suitability of variant A2C8 and K7F11 as transamidases was further investigated in comparison to the native Trypsiligase II. Therefore the enzymatic parameters for the catalyzed transamidation reaction were determined by a model transamidation reaction using peptide substrates with the preferred recognition motive. In addition the model transamidation reaction was performed at high (250 μM) and low (15 μM) substrate concentrations to check, whether the new biocatalysts could also efficiently catalyze the desired reaction at low substrate concentration, which is a crucial requirement for the modification of therapeutic proteins. […] It was assumed that an improved transamidation activity is reached by introducing mutations which improve the affinity of the biocatalyst for the nucleophilic peptide and/or reduce its hydrolysis activity. Therefore corresponding experimental data describing both parameters for the native Trypsiligase II as well as variant A2C8 were determined.

Setting [7] is: R1-YRAH-R2, 100 μM acyl donor, 200 μM acyl acceptor, absence of zinc ions.

B1: A2C8: Trypsiligase II + H40F, A55A, R96E, K97D, L99F, N143E, E151Y, S190V, Q192A, S214G, G219Q, A221T (protein)
chain: IVGGYTCQENSVPYQVSLNSGHFFCGGSLINDQWVVSAAHCHESRIQVRLGEHNINVLEGNEQFVNAAKIIKHPNFDEDTFNNDIMLIKLSSPVKLNARVATVALPSSCAPAGTQCLISGWGETLSSGVNYPDLLQCLDAPLLPQADCEASYPGKITDNMVCVGFLEGGKKVCAGDSGGPVVCNGELQGIVGWGYQCTLPDNPGVYTKVCNYVDWIQDTIAAN
Turning to B1, the “kcat, AL^app + Zn^2+ (mkat/mol)” value turned out to be 8.42 mkat/mol in data set [1] (0.1 mM ZnCl2) and 9.46 mkat/mol in data set [2] (R1-YRAH-R2, 100 μM acyl donor, 200 μM acyl acceptor, 2 μM trypsin variant, 0.1 mM ZnCl2). Moreover, the “product yield + Zn^2+ (%)” value in data set [1] (0.1 mM ZnCl2) came to 55.0%; in data set [2] (R1-YRAH-R2, 100 μM acyl donor, 200 μM acyl acceptor, 0.1 mM ZnCl2) it was 53.3%. The “kcat, AL^app − Zn^2+ (mkat/mol)” value in data set [1] (absence of zinc ions) is 16.92 mkat/mol; in data set [2] (setting [7]), 14.51 mkat/mol. Further, the “product yield − Zn^2+ (%)” value in data set [1] (absence of zinc ions) is listed as 57.6%; in data set [2] (setting [7]), 50.4%. In addition, the “dependence for zinc ions” value in data set [2] (A2C8: substrates with YRAH and YRKH sequence, K7F11: YRAH substrate only) is reported as “no dependence for zinc ions”. Besides, in data set [3], the “kcat, HL (mkat/mol)” value is 86.6 mkat/mol. In addition, the “reduction in the enzyme's hydrolysis activity versus Trypsiligase II (factor)” value in data set [4] was 7.

B2: Trypsiligase II (trypsin variant Y39H/Y59H/K60E/D189K) (protein)
chain: IVGGYTCQENSVPYQVSLNSGHHFCGGSLINDQWVVSAAHCHESRIQVRLGEHNINVLEGNEQFVNAAKIIKHPNFDRKTLNNDIMLIKLSSPVKLNARVATVALPSSCAPAGTQCLISGWGNTLSSGVNEPDLLQCLDAPLLPQADCEASYPGKITDNMVCVGFLEGGKKSCQGDSGGPVVCNGELQGIVSWGYGCALPDNPGVYTKVCNYVDWIQDTIAAN
For the molecule B2, the “kcat, HL (mkat/mol)” value in data set [5] is 602.1 mkat/mol. For the same molecule, in the data set with H-RAHAK(DNP)-OH, the KM, acyl acceptor (µM); zinc ions (100 µM): no; transamidation with 250 µM Bz-PGGYRAHAG-OH as acyl donor turned out to be 1630 µM; the KM, acyl acceptor (µM); zinc ions (100 µM): yes; transamidation with 250 µM Bz-PGGYRAHAG-OH as acyl donor was found to be 144 µM; the “fold increase of KM of the nucleophilic peptide without zinc ions against with zinc ions” value is “increased by a factor of 11 to 1630 µM”. The “product yield (%)” value in data set [6] ([Substrate] 15 μM Bz-PGGYRAHAG-OH, 30 μM H-RAHAK-OH) is 3% and 3.2%. Besides, in data set [6] ([Substrate] 15 μM), the “kcat, AL^app (mkat/mol)” value stood at 0.33 mkat/mol; the “kcat, AL^app/kcat, HL^app” value is 0.1; the “kcat, HL^app (mkat/mol)” value amounted to 2.84 mkat/mol. For the same molecule, in data set [6] ([Substrate] 250 μM Bz-PGGYRAHAG-OH, 500 μM H-RAHAK-OH), the “product yield (%)” value is 17% and 17.3%. In data set [6] ([Substrate] 250 μM), the “kcat, AL^app (mkat/mol)” value turned out to be 14.40 mkat/mol; the “kcat, AL^app/kcat, HL^app” value is listed as 0.9; the “kcat, HL^app (mkat/mol)” value was determined as 16.00 mkat/mol. In addition, the “turnover rate of hydrolysis relative to aminolysis” value in data set [6] (substrate concentration 15 μM) is given as “tenfold higher turnover rate”.
